Measured values reported in the supplement of paper PMC9112550, “Optimization of the antimicrobial peptide Bac7 by deep mutational scanning” (BMC Biology, 2022).

Test system: Escherichia coli TOP10
Experiment: shrunken log2 fold change of peptide-encoding DNA abundance (4.5 h post-induction vs induction); higher = less antimicrobial activity (less host growth inhibition)
Conditions: time post-induction: 4.5 h; library: site-saturation at positions 5, 18, 19, 20
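Note: peptides expressed intracellularly from a pBAD plasmid library in pooled LB shake-flask culture, induced with 0.3% L-arabinose, DNA abundance read by NGS, three biological replicates, DESeq2 with apeglm shrinkage.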

Sequence | shrunken log2 fold change
RRIRNRPPRLPRPRPRPVMMPRP | -0.198
RRIRQRPPRLPRPRPRPGNGPRP | 0.0197
RRIRVRPPRLPRPRPRPEQVPRP | 0.0835
RRIRMRPPRLPRPRPRPQGEPRP | -0.0117
RRIRQRPPRLPRPRPRPIYQPRP | -0.647
RRIRNRPPRLPRPRPRPIQVPRP | -0.0304
RRIRRRPPRLPRPRPRPSKSPRP | 0.292
RRIRVRPPRLPRPRPRPFHCPRP | -0.13
RRIRKRPPRLPRPRPRPMQQPRP | -0.000844
RRIRWRPPRLPRPRPRPKYFPRP | -0.302
RRIRWRPPRLPRPRPRPNIIPRP | -0.486
RRIRYRPPRLPRPRPRPFTRPRP | -0.0174
RRIRLRPPRLPRPRPRPRTAPRP | 0.482
RRIRLRPPRLPRPRPRPVYCPRP | -0.303
RRIRERPPRLPRPRPRPYRMPRP | -0.113
RRIRMRPPRLPRPRPRPAWCPRP | 3.93
RRIRTRPPRLPRPRPRPVMAPRP | -0.0918
RRIRSRPPRLPRPRPRPIQQPRP | -0.0226
RRIRDRPPRLPRPRPRPDPCPRP | -0.0187
RRIRLRPPRLPRPRPRPWGNPRP | -0.106
RRIRRRPPRLPRPRPRPHICPRP | -0.0887
RRIRRRPPRLPRPRPRPPWHPRP | 0.516
RRIRCRPPRLPRPRPRPLNKPRP | -0.695
RRIRQRPPRLPRPRPRPMPMPRP | -0.00149
RRIRLRPPRLPRPRPRPYRTPRP | -0.197

Sequence | shrunken log2 fold change
RRIRDRPPRLPRPRPRPLIVPRP | 0.173
RRIRARPPRLPRPRPRPYIWPRP | -0.543
RRIRQRPPRLPRPRPRPCGMPRP | -0.199
RRIRERPPRLPRPRPRPKDTPRP | -0.115
RRIRVRPPRLPRPRPRPIDNPRP | -0.447
RRIRSRPPRLPRPRPRPIAQPRP | -0.0267
RRIRYRPPRLPRPRPRPRTNPRP | -0.492
RRIRSRPPRLPRPRPRPVYPPRP | -0.11
RRIRMRPPRLPRPRPRPPKRPRP | 1.05
RRIRQRPPRLPRPRPRPDYDPRP | 0.003
RRIRVRPPRLPRPRPRPHKCPRP | -0.274
RRIRTRPPRLPRPRPRPRVKPRP | -0.0675
RRIRGRPPRLPRPRPRPHLSPRP | 0.283
RRIRMRPPRLPRPRPRPIMMPRP | -0.00663
RRIRARPPRLPRPRPRPDTTPRP | 0.0242
RRIRCRPPRLPRPRPRPIGEPRP | -0.0453
RRIRFRPPRLPRPRPRPSFQPRP | -0.145
RRIRWRPPRLPRPRPRPCHNPRP | -1.64
RRIRARPPRLPRPRPRPEQMPRP | 1.06
RRIRIRPPRLPRPRPRPVKTPRP | -0.0343
RRIRCRPPRLPRPRPRPKDPPRP | 0.148
RRIRRRPPRLPRPRPRPATAPRP | 0.479
RRIRTRPPRLPRPRPRPANDPRP | -0.116
RRIRWRPPRLPRPRPRPYMIPRP | -1.02
RRIRWRPPRLPRPRPRPCSTPRP | 0.137

Sequence | shrunken log2 fold change
RRIRERPPRLPRPRPRPTLFPRP | 0.0897
RRIRVRPPRLPRPRPRPQQEPRP | 0.0458
RRIRCRPPRLPRPRPRPKGIPRP | 0.0519
RRIRLRPPRLPRPRPRPCSLPRP | 0.00822
RRIRWRPPRLPRPRPRPWLPPRP | -0.188
RRIRFRPPRLPRPRPRPGHSPRP | -0.0168
RRIRHRPPRLPRPRPRPASIPRP | -0.164
RRIRGRPPRLPRPRPRPDMCPRP | 1.27
RRIRTRPPRLPRPRPRPGSIPRP | -0.025
RRIRARPPRLPRPRPRPWQAPRP | -0.0548
RRIRARPPRLPRPRPRPVCRPRP | 0.505
RRIRCRPPRLPRPRPRPWAGPRP | 0.124
RRIRKRPPRLPRPRPRPLVLPRP | -0.0684
RRIRFRPPRLPRPRPRPPDHPRP | 0.28
RRIRQRPPRLPRPRPRPFIGPRP | -0.281
RRIRDRPPRLPRPRPRPDRPPRP | -0.251
RRIRARPPRLPRPRPRPNSRPRP | 0.0429
RRIRQRPPRLPRPRPRPTPYPRP | -0.266
RRIRYRPPRLPRPRPRPIQIPRP | -0.409
RRIRLRPPRLPRPRPRPDRAPRP | 0.0122
RRIRERPPRLPRPRPRPTVGPRP | -0.116
RRIRFRPPRLPRPRPRPIKCPRP | -0.229
RRIRGRPPRLPRPRPRPRVDPRP | 1.57
RRIRSRPPRLPRPRPRPVEIPRP | -0.0626
RRIRYRPPRLPRPRPRPCPQPRP | -0.0849

Sequence | shrunken log2 fold change
RRIRFRPPRLPRPRPRPYLCPRP | -0.477
RRIRCRPPRLPRPRPRPEVVPRP | 0.332
RRIRHRPPRLPRPRPRPSEFPRP | -0.477
RRIRLRPPRLPRPRPRPSDYPRP | -0.106
RRIRERPPRLPRPRPRPAHSPRP | -0.159
RRIRQRPPRLPRPRPRPWPCPRP | -0.0164
RRIRLRPPRLPRPRPRPAHSPRP | 0.0693
RRIRLRPPRLPRPRPRPWHDPRP | -0.205
RRIRNRPPRLPRPRPRPHQFPRP | -0.000243
RRIRCRPPRLPRPRPRPTQNPRP | 0.803
RRIRRRPPRLPRPRPRPHHSPRP | -0.57
RRIRDRPPRLPRPRPRPEPFPRP | -0.137
RRIRSRPPRLPRPRPRPYVDPRP | -0.594
RRIRTRPPRLPRPRPRPAIYPRP | -0.372
RRIRDRPPRLPRPRPRPQKDPRP | -0.294
RRIRFRPPRLPRPRPRPLLSPRP | 0.0127
RRIRSRPPRLPRPRPRPRVSPRP | -0.0241
RRIRRRPPRLPRPRPRPVTAPRP | 0.452
RRIRWRPPRLPRPRPRPHYQPRP | -0.00398
RRIRHRPPRLPRPRPRPFLYPRP | -0.624
RRIRIRPPRLPRPRPRPTQIPRP | 0.245
RRIRWRPPRLPRPRPRPTMWPRP | 0.615
RRIRARPPRLPRPRPRPHDEPRP | -0.00385
RRIRLRPPRLPRPRPRPVMIPRP | -0.269
RRIRYRPPRLPRPRPRPFHGPRP | 0.0221

Sequence | shrunken log2 fold change
RRIRTRPPRLPRPRPRPEQIPRP | 0.126
RRIRIRPPRLPRPRPRPRKYPRP | -0.561
RRIRARPPRLPRPRPRPFEYPRP | -0.0276
RRIRHRPPRLPRPRPRPWQHPRP | -0.0597
RRIRNRPPRLPRPRPRPLCQPRP | -0.307
RRIRIRPPRLPRPRPRPTDYPRP | -0.223
RRIRGRPPRLPRPRPRPAWWPRP | 1.39
RRIRARPPRLPRPRPRPKNIPRP | -0.127
RRIRCRPPRLPRPRPRPPDEPRP | 1.07
RRIRFRPPRLPRPRPRPAHDPRP | 0.0907
RRIRFRPPRLPRPRPRPNKSPRP | -0.67
RRIRNRPPRLPRPRPRPYGKPRP | -0.0718
RRIRCRPPRLPRPRPRPQIIPRP | -0.853
RRIRNRPPRLPRPRPRPTYAPRP | 0.027
RRIRHRPPRLPRPRPRPMTPPRP | 0.0337
RRIRRRPPRLPRPRPRPRDDPRP | 0.14
RRIRIRPPRLPRPRPRPGCTPRP | -0.268
RRIRCRPPRLPRPRPRPQFWPRP | 0.303
RRIRVRPPRLPRPRPRPGFWPRP | 0.587
RRIRDRPPRLPRPRPRPAKDPRP | -0.0015
RRIRQRPPRLPRPRPRPSSRPRP | -0.14
RRIRKRPPRLPRPRPRPWFDPRP | -0.0566
RRIRSRPPRLPRPRPRPGKCPRP | 0.0216
RRIRYRPPRLPRPRPRPPIYPRP | -0.676
RRIRQRPPRLPRPRPRPRHKPRP | 0.0456

Sequence | shrunken log2 fold change
RRIRMRPPRLPRPRPRPEKAPRP | 1.52
RRIRPRPPRLPRPRPRPYHDPRP | -0.0378
RRIRWRPPRLPRPRPRPRMEPRP | 0.439
RRIRVRPPRLPRPRPRPECGPRP | 0.691
RRIRIRPPRLPRPRPRPLSYPRP | -0.528
RRIRNRPPRLPRPRPRPLWIPRP | -0.286
RRIRTRPPRLPRPRPRPYSNPRP | -0.941
RRIRFRPPRLPRPRPRPKWKPRP | -0.0366
RRIRARPPRLPRPRPRPRFNPRP | 0.269
RRIRGRPPRLPRPRPRPDMGPRP | 0.269
RRIRRRPPRLPRPRPRPHRIPRP | -0.279
RRIRFRPPRLPRPRPRPSCTPRP | -0.407
RRIRCRPPRLPRPRPRPKYWPRP | 0.22
RRIRKRPPRLPRPRPRPRLRPRP | 0.485
RRIRARPPRLPRPRPRPIWHPRP | 0.331
RRIRQRPPRLPRPRPRPTDTPRP | -0.339
RRIRVRPPRLPRPRPRPPHAPRP | 0.351
RRIRYRPPRLPRPRPRPSGCPRP | -0.264
RRIRVRPPRLPRPRPRPKASPRP | 0.0977
RRIRARPPRLPRPRPRPCYTPRP | -0.486
RRIRRRPPRLPRPRPRPMHRPRP | 0.0514
RRIRGRPPRLPRPRPRPNWNPRP | -0.00809
RRIRDRPPRLPRPRPRPRYVPRP | -0.0272
RRIRSRPPRLPRPRPRPVMLPRP | -0.112
RRIRCRPPRLPRPRPRPIGNPRP | -0.221
